Test results as given in patent publication US7790682B1, “Engineered human acidic fibroblast growth factors and associated methods” (The Florida State University Research Foundation, Inc., priority 2003, dated 2010).
“And” between values parts separate entries of the source, which are not always exact repeats. Equal entries are not always repeated.

B1: SYM6/ΔΔ: SYM6 FGF-1 mutant plus both Δ104-106 and Δ120-122 deletion mutations, SEQ ID NO: 1 (protein)
chain: FNLPPGNYKKPKLLYCSNGGHFLRILPDGTVDGTRDRSDQHIQFQLSAESVGEVYIKSTETGQYLAIDTDGLVYGSQTPNEECLFLERLEENHYNTYISKKHGWFLGIKKNGSVKGTHYGQKAILFLPLPVSSD
modifications: Human FGF-1 mutant SYM6DD
B2: SYM5/Δ104-106: SYM5 FGF-1 mutant plus Ala103→Gly/ΔGlu104/ΔLys105/ΔAsn106 (protein, UniProt P05230 16-155, looked up, variant L44F L73V V109L L111I C117V A103G del104-106)
Fibroblast growth factor 1: FNLPPGNYKKPKLLYCSNGGHFLRILPDGTVDGTRDRSDQHIQFQLSAESVGEVYIKSTETGQYLAMDTDGLVYGSQTPNEECLFLERLEENHYNTYISKKHGWFLGIKKNGSVKRGPRTHYGQKAILFLPLPVSSD
B3: SYM5/Δ120-122: SYM5 FGF-1 mutant plus Arg119→Gly/ΔGly120/ΔPro121/ΔArg122, SEQ ID NO: 2 (protein)
chain: FNLPPGNYKKPKLLYCSNGGHFLRILPDGTVDGTRDRSDQHIQFQLSAESVGEVYIKSTETGQYLAMDTDGLVYGSQTPNEECLFLERLEENHYNTYISKKHAEKNWFLGIKKNGSVKGTHYGQKAILFLPLPVSSD
modifications: Human FGF-1 mutant SYM5D120-122
B4: SYM5: FGF-1 core mutant Leu44→Phe/Leu73→Val/Val109→Leu/Leu111→Ile/Cys117→Val (protein, UniProt P05230 16-155, looked up, variant L44F L73V V109L L111I C117V)
Fibroblast growth factor 1: FNLPPGNYKKPKLLYCSNGGHFLRILPDGTVDGTRDRSDQHIQFQLSAESVGEVYIKSTETGQYLAMDTDGLVYGSQTPNEECLFLERLEENHYNTYISKKHAEKNWFLGIKKNGSVKRGPRTHYGQKAILFLPLPVSSD

Legend:
[1] = Folding and unfolding kinetics (Chevron plot, stopped-flow CD, GuHCl); format: physicochemical; conditions: for kf: folding rate constant extrapolated to 0M GuHCl; for kf / ku: global Chevron fit; for ΔΔG‡-D / ΔΔG‡-N: in reference to WT*; for ΔΔG‡-D: positive value = decrease in folding activation barrier; for ΔΔG‡-N: positive value = decrease in unfolding activation barrier; for mf: slope of ln(kf) vs GuHCl; for mu: slope of ln(ku) vs GuHCl; for ku: unfolding rate constant extrapolated to 0M GuHCl
Experimental: Due to signal-to-noise considerations, relatively high protein concentrations (>100 μM) of FGF-1 were required for kinetic studies monitored by CD. At these concentrations protein precipitation occurred in ADA buffer. Therefore, a different buffering system was chosen for the kinetic studies to permit higher protein concentrations without precipitation. Protein samples were dialyzed against 50 mM sodium phosphate, 100 mM NaCl, 10 mM ammonium sulfate, 2 mM DTT, and typically 2.5, 3.0 or 3.8M GuHCl pH 7.5 overnight at 298K prior to data collection (higher concentrations of GuHCl were required to ensure complete denaturation for some stabilizing mutations).
Protein samples were degassed for 10 minutes prior to analysis. Refolding was initiated by a 1:10 dilution of protein solutions into 50 mM sodium phosphate, 100 mM NaCl, 10 mM ammonium sulfate, 2 mM DTT pH 7.5 containing either 0.1M or 0.05M increments of GuHCl up to the midpoint of denaturation. All data were collected using an Aviv model SF305 stopped flow system. Data collection times for each protein were designed to quantify the CD signal over 5 half-lives, or >96% of the total expected amplitude.
Protein samples (300 μM) were dialyzed against 50 mM sodium phosphate, 100 mM NaCl, 10 mM ammonium sulfate, 2 mM DTT pH 7.50 buffer overnight at 298K, and degassed for 10 min prior to data collection. Unfolding was initiated by 1:10 dilution of the native protein into 50 mM sodium phosphate, 100 mM NaCl, 10 mM ammonium sulfate, 2 mM DTT pH 7.5 buffer with final GuHCl concentration in the range of 1.5 to 5.5M in 0.5M increments. The unfolding process was quantified by following the change in CD signal at 227 nm, and data collection times for each protein were designed so as to monitor the CD signal over 3 to 4 half-lives, or >93% of the total expected amplitude.
Triplicate scans were collected for both folding and unfolding kinetic data at each GuHCl buffer condition. In all cases, data from at least three separate experiments were averaged. The kinetic rates and amplitudes versus denaturant concentration were calculated from the time dependent change in CD signal using a single exponential model: I(t)=Aexp(−kt)+C (3) where I(t) is the intensity of CD signal at time t, A is the corresponding amplitude, k is the observed rate constant for the reaction and C is a constant that is the asymptote of the CD signal. Folding and unfolding rate constant data were fit to a global function describing the contribution of both rate constants to the observed kinetics as a function of denaturant (“Chevron” plot): In(kobs)=In(kf0exp(mkfD)+ku0exp(mkuD)) (5) where kf0 and ku0 are the folding and unfolding rate constants, respectively, extrapolated to 0M denaturant, mkf and mku are the slopes of the linear functions relating In(kf) and In(ku), respectively, to D, the denaturant concentration. Changes in activation barriers upon mutation were calculated using a modified version of transition state theory: ΔΔG‡-D=RTIn(kf Mut/kfWT*) and ΔΔG‡-N=RTIn(ku Mut/kuWT*) (6) where kf Mut, ku Mut, kf WT* and ku WT* are the folding and unfolding rates for mutant and WT*, respectively, in water. ΔΔG‡-D, and ΔΔG‡-N are the changes in the activation barrier for folding and unfolding, respectively, between mutation and WT*. A positive value for ΔΔG‡-D or ‡‡G‡-N indicates a decrease in the associated activation barrier energy. Isothermal Titration Calorimetry.
Due to the relatively weak differential CD signal of native and denatured FGF-1, the folding kinetics study required relatively high protein concentrations (>5 mg/ml). […] Thus, the refolding rate constants were not obtainable below certain denaturant concentrations for these mutants. […] The SYM6Δ120-122 mutant is substantially destabilized relative to the WT* protein (see Table II) and presents a relatively short “folding arm” in the Chevron plot, for this reason there is greater uncertainty associated with the folding kinetics determined for this mutant. […]

[2] = Isothermal equilibrium denaturation in guanidine HCl monitored by CD; format: physicochemical; conditions: for Cm / m-value / ΔG0: GuHCl, 298K, CD signal at 227 nm; for ΔΔG: relative to WT*, negative value = more stable
Experimental: Protein samples were equilibrated overnight in 20 mM N-2-(acetamido)iminodiacetic acid (ADA), 100 mM NaCl pH 6.60 at 298K in 0.1M increments of guanidine HCl (GuHCl). All samples contained a final protein concentration of 25 μM. An Aviv model 202 circular dichroism spectrometer (Proterion Corp., Piscataway, N.J.) equipped with a Peltier controlled temperature unit maintaining a constant temperature of 298K was used for all spectroscopic measurements. For each sample, triplicate scans were collected and averaged. Buffer traces were collected, averaged and subtracted from the sample traces. Data smoothing was performed prior to buffer subtraction using a 5-point Fourier transform filter. The denaturation process was monitored by observing the change in CD signal at 227 nm with increasing GuHCl, according to published references. The general purpose non-linear least squares fitting program DataFit™ (Oakdale Engineering, Oakdale Pa.) was used to fit the change in molar ellipticity at 227 nm versus GuHCl concentration to a six parameter two state model: F=(F0N+SN[D]+F0D+SD[D])e^−((ΔG0+m[D]/RT)/1+e^−((ΔG0+m[D]/RT) (1) where [D] is the denaturant concentration, F0N and F0D are the 0M denaturant molar ellipticity intercepts for the native and denatured states, respectively, and SN and SD are the slopes of the native and denatured state baselines, respectively. ΔG0 and m describe the linear function of the unfolding free energy versus denaturant concentration at 298K. The effect of a given mutation upon the stability of the protein (ΔΔG) was calculated by taking the difference between the Cm values for WT* and mutant and multiplying by the average of the m values, as described by Pace and Scholtz (Measuring the conformational stability of a protein; in Protein Structure: A Practical Approach, Creighton, T. E., ed., pp. 299-321, Oxford University Press, Oxford; 1997): ΔΔG=(CmWT*−Cm mutant)(mWT*+mmutant)/2 (2) Folding Kinetics Measurements.
Previous studies by others of the stability and folding of FGF-1 have been performed by monitoring the fluorescence signal of the single buried Trp 107 in FGF-1. This Trp in the WT* structure is somewhat unusual in that it is more highly quenched in the native state than the denatured. […] We have previously compared the fluorescence and CD spectroscopic response of FGF-1 to denaturation by GuHCl and shown essentially indistinguishable results for both his-tagged and non-his-tagged forms. A tabulation of the mutant thermodynamic data from isothermal equilibrium denaturation, monitored by CD signal, is listed in Table II. The data in this table for the SYM6 mutant are from our previously published isothermal equilibrium denaturation study monitored by fluorescence.

| Molecule | kf [1] [s⁻¹] | ΔΔG‡-D [1] [kcal/mol] | ΔΔG‡-N [1] [kcal/mol] | mf [1] [M⁻¹] | mu [1] [M⁻¹] | ku [1] | Cm [2] [M] | m-value [2] [kJ/mol M] | ΔG0 [2] [kcal/mol] | ΔΔG [2] [kcal/mol] | folding behavior ([1]; all denaturant concentrations evaluated) | increase in protein stability ([2]; in comparison to WT*) | effect on stability of insertion of both loop regions ([2]; relative to SYM5ΔΔ) |
| --- | --- | --- | --- | --- | --- | --- | --- | --- | --- | --- | --- | --- | --- |
| WT*: Wild type (his-tagged) 140 amino acid form of human FGF-1, SEQ ID NO: 4 [reference compound] | 3.31 | 0 | 0 | -6.05 | 0.47 | 0.69 1 × 10^−3 sec^−1 | 1.06 ± 0.01 | 20.1 ± 0.5 | 5.09 ± 0.19 | 0 |  |  |  |
| B1 | 74.0 | 1.84 | 0.602 | -4.40 | 0.69 | 1.90 1 × 10^−3 sec^−1 | 1.91 ± 0.02 | 17.7 ± 0.4 | 8.1 ± 0.14 | -3.85 | single exponential folding behavior | 3.85 kcal/mol and ~3.82 kcal/mol |  |
| B2 | 2.00 | -0.299 | -0.0598 | -3.70 | 0.95 | 0.62 1 × 10^−3 sec^−1 | 1.47 ± 0.01 | 17.2 ± 0.5 | 6.05 ± 0.22 | -1.82 |  |  |  |
| B3 | 7.29 | 0.468 | 0.502 | -6.44 | 0.80 | 1.60 1 × 10^−3 sec^−1 | 1.00 ± 0.02 | 16.6 ± 0.5 | 3.97 ± 0.12 | 0.263 |  |  |  |
| B4 | 2.57 | -0.151 | -0.6 | -6.44 | 0.57 | 0.25 1 × 10^−3 sec^−1 | 1.05 ± 0.01 | 17.5 ± 0.3 | 4.4 ± 0.096 | 0.048 |  |  | +15.0 kJ/mol |
